Several values for one entry are separate records, joined by “and”; a condition that tells them apart may be missing. Equal values may be shown once.
Legend:
human CCR8 [1] = biological target: T1, human CCR8 (human, UniProt P51685 1-355); test: competition flow cytometry on hCCR8 transfected CHO cells; blocked ligand CCL1-AF647 [cont.]
T1 construct: the cells are named under assay; also called hCCR8

human CCR8 [2] = biological target: T1, human CCR8; test: cell-based or functional assay
human CCR8 [3] = biological target: T1, human CCR8; test: flow cytometry, hCCR8 transfected CHOK1 cells
pm5 = pm5 (human, sulfated tyrosines at Y15 and Y17); test: ELISA on coated peptide [cont.]
Chain of pm5 (human, sulfated tyrosines at Y15 and Y17) (peptide, as listed by the source): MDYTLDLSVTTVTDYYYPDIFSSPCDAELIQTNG
Summary of the method: (§1)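 In this direct ELISA, CCR8-related peptides coated at 500 ng/mL are probed with anti-CCR8 mAbs (1 μg/mL, also 1/10 dilution; 90 min, room temperature). Read-out is TMB optical density.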

pm3 = pm3 (human, sulfated tyrosine at Y17); test: ELISA on coated peptide [cont.]
Chain of pm3 (human, sulfated tyrosine at Y17) (peptide, as listed by the source): as above
Summary of the method: as §1

pm8 = pm8 (human, sulfated tyrosines at Y15, Y16 and Y17); test: ELISA on coated peptide [cont.]
Chain of pm8 (human, sulfated tyrosines at Y15, Y16 and Y17) (peptide, as listed by the source): as above
Summary of the method: as §1

pm6 = pm6 (human, sulfated tyrosines at Y16 and Y17); test: ELISA on coated peptide [cont.]
Chain of pm6 (human, sulfated tyrosines at Y16 and Y17) (peptide, as listed by the source): as above
Summary of the method: as §1

human CCR8 [4] = biological target: T1, human CCR8; test: cell-based or functional assay; remark: listed apart in the source
human CCR8 [5] = biological target: T1, human CCR8; test: cell-based or functional assay; remark: listed apart in the source
pm1 = pm1 (human, sulfated tyrosine(s) among Tyr 15, Tyr 16, Tyr 17; marked only by underlining, lost in the text); test: ELISA on coated peptide [cont.]
Chain of pm1 (human, sulfated tyrosine(s) among Tyr 15, Tyr 16, Tyr 17; marked only by underlining, lost in the text) (peptide, as listed by the source): as above
Summary of the method: as §1

pm2 = pm2 (human, sulfated tyrosine(s) among Tyr 15, Tyr 16, Tyr 17; marked only by underlining, lost in the text); test: ELISA on coated peptide [cont.]
Chain of pm2 (human, sulfated tyrosine(s) among Tyr 15, Tyr 16, Tyr 17; marked only by underlining, lost in the text) (peptide, as listed by the source): as above
Summary of the method: as §1

pwt1 = biological target: T2, pwt1 (human); test: ELISA on coated peptide [cont.]
T2 construct: also called unmodified peptide
T2 sequence (peptide, as listed by the source): as above
Summary of the method: as §1

pm4 = pm4 (human, sulfated tyrosine(s) among Tyr 15, Tyr 16, Tyr 17; marked only by underlining, lost in the text); test: ELISA on coated peptide [cont.]
Chain of pm4 (human, sulfated tyrosine(s) among Tyr 15, Tyr 16, Tyr 17; marked only by underlining, lost in the text) (peptide, as listed by the source): as above
Summary of the method: as §1

human CCR8 [6] = biological target: T1, human CCR8; test: flow cytometry, HUT78 cells (native CCR8)
human CCR8 [7] = biological target: T1, human CCR8; test: competition HTRF on HEK-293 cells with hCCR8; blocked ligand CCL1-AF647 [cont.]
CCR8 SNAP-tag = CCR8 SNAP-tag (human, UniProt P51685 1-355, SNAP-tag labelled with Lumi4-Terbium); test: cell-based or functional assay
human CCR8 [8] = biological target: T1, human CCR8; test: competition flow cytometry on hCCR8 transfected CHO cells; blocked ligand CCL1-AF647
human CCR8 [9] = biological target: T1, human CCR8; test: flow cytometry, human activated T cells
Procedure: (§2) Briefly, 1·10⁵ cells per well in a 96 well plate were incubated with a dilution of unconjugated anti-CCR8 mAb at 10 μg/mL then diluted at 1/3.33, 4 dilution points (during 30 min at 4° C.). […] To determine EC50 value, 8 concentrations of anti-CCR8 mAb were tested. Unbound antibodies were washed away with PBS (Invitrogen by Thermofisher Scientific, Illkirch-Graffenstaden, France) supplemented by 2% Fetal Bovine Serum (Invitrogen by Thermofisher Scientific, Illkirch-Graffenstaden, France) and 2 mM EDTA (Invitrogen by Thermofisher Scientific, Illkirch-Graffenstaden, France). Subsequently, cells are centrifuged (5 min at 400 g) and bound antibody is detected with F(ab′)₂-Goat anti-Mouse IgG (H+L) Cross-Adsorbed Secondary Antibody, Alexa Fluor 488 (dilution 1/500) (Invitrogen by Thermofisher Scientific, Illkirch-Graffenstaden, France) or with F(ab′)₂-Goat anti-Human IgG Fc Secondary Antibody, PE (Invitrogen by Thermofisher Scientific, Illkirch-Graffenstaden, France) (dilution 1/1000) at 4° C. for 30 min. Detection reagent is washed away and cells are centrifuged (5 min at 400 g) and resuspended in 30 μL PBS. Bound detection antibody is quantified on a MacsQuant16 (Miltenyi, Gladbach, Germany) (B1 or B2 channel, 5000 events per acquisition).
(§3) Binding characteristics of anti-CCR8 mAb cellular reactivity was further investigated by testing their binding to activated T cells.

human CCR8 [10] = biological target: T1, human CCR8; test: flow cytometry, human activated T cells pre-incubated with 200 nM hCCL1
Procedure: as §2, §3

human CCR8 [11] = biological target: T1, human CCR8; test: cell-based or functional assay; remark: listed apart in the source
human CCR8 [12] = biological target: T1, human CCR8; test: competition HTRF on HEK-293 cells with hCCR8; blocked ligand CCL1-AF647 [cont.]; remark: listed apart in the source
human CCR8 [13] = biological target: T1, human CCR8; test: flow cytometry, hCCR8 transfected CHOK1 cells; remark: listed apart in the source
Procedure: as §2
EC50 values were not constantly determined in the same experiments.

Binder | hCCL1 (100 nM) residual response, Protocol #2, mAb 0.08 µg/mL (human CCR8 [2]) | hCCL1 (100 nM) residual response, Protocol #2, mAb 0.4 µg/mL (human CCR8 [2]) | hCCL1 (100 nM) residual response, Protocol #2, mAb 10 µg/mL (human CCR8 [2]) | hCCL1 (100 nM) residual response, Protocol #3, mAb 0.05 µg/mL (human CCR8 [2]) | hCCL1 (100 nM) residual response, Protocol #3, mAb 0.5 µg/mL (human CCR8 [2]) | hCCL1 (100 nM) residual response, Protocol #3, mAb 5 µg/mL (human CCR8 [2]) | % positive cells (human CCR8 [3]) | MFI fold change to isotype ctrl (human CCR8 [3]) | binding result (pm5) | binding result (pm3) | binding result (pm8) | binding result (pm6) | IC50 (Gi2 BRET, pH 6.5) (human CCR8 [4]) | IC50 (Gi2 BRET, pH 7.4) (human CCR8 [4]) | ADCC % Max lysis, NK cells Donor 3 (human CCR8 [5]) | ADCC % Max lysis, NK cells Donor 4 (human CCR8 [5]) | ADCC EC50, NK cells Donor 3 (human CCR8 [5]) | ADCC EC50, NK cells Donor 4 (human CCR8 [5]) | % of labelled cells (human CCR8 [6]) | % of internalization at 1 µg/ml mAb (HTRF) (CCR8 SNAP-tag) | other results
3-5 (antibody, V domains shown) VH: EVQLLESGGGLVQPKGSLKLSCAASGFTFNPYAMNWVRQAPGRGLEWVARIRSKSNNYATYYADSVKDRFTISRDDSQDMLYLQMNNLKTEDTAMYYCVRGREAYYRYDGDYYAMDYWGQGTSVTVSS VL: DIVMTQAAPSVPVTPGESVSISCRSSKSLLHSNGNTYLYWFLQRPGQSPQLLIYRMSNLASGVPDRFSGSGSGTAFTLRISRVEAEDVGVYYCMQHLEYPFTFGSGTKLEIK | 81% | 69% | 44% | 77% | 57% | 49% | 72.8% | 6.32 fold | binds | binds | binds | binds | 0.021 µg/ml and 0.143 nM | 0.163 nM and 0.024 µg/ml |  |  |  |  |  |  | IC50 (read off the curve) (human CCR8 [1]): ~1 µg/mL
3-80 (antibody, human IgG1, kappa, V domains shown, humanized, human IgG1 kappa) VH: QVQLVQSGPEVVKPGASVKVSCKTSGYTFTEYTIHWVRQAPGQSLEWVGGINPNNGNTRYDQKFQGRVTITRDKSASTAYMELRSLTSEDTAVYYCARVARSSGSGPYAMDYWGQGTTVTVSS VL: DVVMTQSPLSLPVTLGDQASISCRCSQSLLHTNGDTYLHWYLQRPGQSPRLLIYKVSNRFSGVPDRFSGSGSGTDFTLKISRVEAEDVGVYFCSQSTHVPYTFGGGTKVEIKR | 67% | 55% | 32% | 86% | 60% | 42% |  |  | binds | binds | binds | binds | 0.011 µg/ml and 0.072 nM | 0.022 µg/ml and 0.148 nM | 15% | 16% | 0.505 nM | 0.573 nM | 96% | 44% | binding result (pm1): binds; binding result (pm2): binds; binding result (pwt1): binds; binding result (pm4): binds; IC50 (read off the curve) (human CCR8 [7]): ~0.03 µg/mL; % of internalization at 10 µg/ml mAb (HTRF) (CCR8 SNAP-tag): 29%
Ref #1 (antibody, human IgG1, V domains shown, benchmark from WO 2021/260210; human IgG1, produced in CHO; also called TPP-21360) VH: EVQLLESGGGLVQPGGSLRLSCAASGFTFSSYGMHWVRQAPGKGLEWVSAINWNGGSTGYADSVKGRFTISRDNSKNTLYLQMNSLRAEDTAVYYCARGHHSGYDGRFFDYWGQGTLVTVSS VL: QSVLTQPPSVSGAPGQRVTISCTGSSSNIGAGYNVHWYQQLPGTAPKLLIYTNNRRPSGVPDRFSGSKSGTSASLAISGLRSEDEADYYCAAWDASLSGWVFGGGTKLTVL |  |  |  |  |  |  | 75.1% | 8.7 fold |  |  |  |  |  |  |  |  |  |  |  | 126% | IC50 (read off the curve) (human CCR8 [8]): ~0.7 µg/mL; % of internalization at 10 µg/ml mAb (HTRF) (CCR8 SNAP-tag): 111%
3-82 (antibody, human IgG1, kappa, V domains shown, humanized, human IgG1 kappa) VH: QVQLVESGGGVVQPGRSLRLSCAASGFTFSNYRMHWVRQAPGKGLEWIAVIKVKSDNYGANYADSVKGRFTISRDNSKNTLYLQMNSLRAEDTAVYYCSSPTYPGSSGFAYWGQGTLVTVSS VL: DIQMTQSPSSLSASVGDRVTITCRASQDISNYLNWYQQKPDGTVKLLIYYTSRLHTGVPSRFSGSGSGTDYTLTISNLQQEDIATYFCQQGNKFPPTFGGGTKVEINR | 85% | 94% | 60% | 93% | 85% | 62% |  |  |  |  |  |  | 0.018 µg/ml and 0.12 nM | 0.02 µg/ml and 0.134 nM | 16% | 19% | 0.349 nM | 1.91 nM | 93% |  | % of labelled cells (human CCR8 [9]): 63%; % of labelled cells (human CCR8 [10]): 54%; Top plateau value (% of hCCL1 100 nM) with 5 µg/mL mAb, Protocol #3 (human CCR8 [11]): 794%; IC50 (read off the curve) (human CCR8 [12]): ~0.02 µg/mL; EC50 (human CCR8 [13]): 0.1 nM

— patent US20260234276A1 (DOMAIN THERAPEUTICS, published 2026)
